{"source": "patent US20170152288A1", "about": "(published 2017)", "molecular_target": "T1, rProtein A Sepharose FF (Staphylococcus aureus, UniProt P38507 37-327, immobilized on Sepharose FF chromatography resin (commercial, GE Healthcare))", "T1 construct": "all other ligands (L1-L78, A2P, MEP Hypercel) are small molecules; also called rProtA; rProtein A Sepharose 4 FF", "test": "batch adsorption in 96-well plates, Langmuir isotherm fit, Bradford assay of supernatant"}
{"binder": "Bevacizumab (Avastin, F. Hoffmann-La Roche, Switzerland) (antibody, V domains shown) VH: EVQLVESGGGLVQPGGSLRLSCAASGYTFTNYGMNWVRQAPGKGLEWVGWINTYTGEPTYAADFKRRFTFSLDTSKSTAYLQMNSLRAEDTAVYYCAKYPHYYGSSHWYFDVWGQGTLVTVSS VL: DIQMTQSPSSLSASVGDRVTITCSASQDISNYLNWYQQKPGKAPKVLIYFTSSLHSGVPSRFSGSGSGTDFTLTISSLQPEDFATYYCQQYSTVPWTFGQGTKVEIK", "values": [{"measurement": "Kd", "result": 4.7, "unit": "µg/mL"}]}
